Data from the supplement of paper PMC12042874.
± gives the uncertainty stated by the source.

assay: amyloid nucleation score (Sup35N fusion, yeast selection) (log enrichment); library NNK3; higher = more nucleation; inactive = no reads after selection
Method in brief: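 Random libraries were run with three technical output replicates. In each, psi-negative yeast expressing Sup35N fused to peptides of 20 random codons were induced 24 hours with 100 μM copper sulfate and grown 7 days at 30°C on medium lacking adenine and uracil, and input and output plasmid inserts were Illumina-sequenced. The nucleation score is the DiMSum log enrichment of output over input reads, centred on the mode score of non-aggregating sequences, and sequences under 100 input reads were excluded.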

Substance	amyloid nucleation score
VMRPIPMSLYLNNFNES	inactive
VMVAMTFNWHDALILWDGMV	inactive
VMVSPPFTYWSRYVDYEYGE	inactive
VNCTNLRKPLQLTQ	inactive
VNCWTNYRYQGSDFIMSYIR	inactive
VNEPDSVFMT	inactive
VNFLSDIVNFGCIVWFPPKI	2.32 ± 0.087
VNFSYNYVGWCFMQLCSAAN	1.74 ± 0.086
VNGFFLVACTCSYFNNRSSW	1.57 ± 0.12
VNIGTIWETDKCMEIFCAAA	inactive
VNILVFLCFAPSLSSRYWWL	2.28 ± 0.081
VNIYGCSYVLHPGCCNGESR	2.84 ± 0.073
VNLEYYV	inactive
VNMISCVYFDMSIERTDEMI	0.801 ± 0.19
VNNVQCLYDAVREDSRWYWG	inactive
VNPCLYGPYSSNNCSRSYFV	inactive
VNQLPRVSGAPIGLLWVCVK	inactive
VNTSINVYRYPFRCRSYRMH	0.833 ± 0.085
VPFVGLLSLALAFYSIKNSN	0.921 ± 0.23
VPGFGVLACCGQVLLFSHLF	inactive
VPGYLWECS	inactive
VPKFVMDMIL	inactive
VPLTRSKYYFRSWRWIDCGG	inactive

Substance	amyloid nucleation score
VPNSRIVTREGCWESACGIR	inactive
VPTMMRVR	inactive
VQGIRFRELFGRPAVRVVWH	inactive
VQLIWDFYSCSN	inactive
VQSFGPNFD	inactive
VQVIRFFWIMGLTGWTRELP	inactive
VQWSEMTAFTGFFSVYISSG	inactive
VRCSR	inactive
VRDQLRVTLVRSENGIHAHY	inactive
VRDRCRIHCAYNRSKGTVSN	inactive
VRGKRTSLWDIKVDYSPDTV	inactive
VRLSVMG	inactive
VRNRSFGTALDNELLNLRPR	inactive
VRNYGLDFRRACGWT	inactive
VRPELMALTDI	inactive
VRRIIML	inactive
VRSLDNQLSVDFFFVGPVGF	1.3 ± 0.14
VRSRMSNWFNHPTVFDRLWA	0.547 ± 0.2
VRSVRGADELDLICHRLSRN	inactive
VRVLFGPFYYVFGSYLIGLV	inactive
VRYVSFAEFSWGLRFSVSRR	inactive
VSCSPMYEEYRHGNLAEYNE	-0.559 ± 0.94
VSDYYDKYGLYFCWFWDGYK	inactive

Substance	amyloid nucleation score
VSGLDWFM	inactive
VSGRWFTMWSGFSLCFALSG	0.062 ± 0.46
VSGSKWQLREGVAKYMMCRY	inactive
VSHLAQHCNRLLLVSMLLGA	inactive
VSHRYFTGRMIALIRGDCLV	inactive
VSHSAFVLNSCERE	inactive
VSHTIKAILFGFRRQDHLYF	inactive
VSINRRLFCLLGDDFTS	inactive
VSKLWSYLVLYPHWV	inactive
VSKYIVSHIASSWSWGQWVL	inactive
VSLKVIDKNFNFHVMYGCID	inactive
VSLKYSTKKPWLKTDHPCWI	inactive
VSMRSTYTFG	0.597 ± 0.51
VSNECVPWAPYGIGGF	inactive
VSQYSVLGVAWSELFRTVD	-0.064 ± 0.26
VSRMARYRLLTYRSAFNSML	-0.605 ± 1.2
VSSAYLKCSFLKNLAVSLYG	inactive
VSSLR	inactive
VSSTALGGNNSICHLSPFYT	inactive
VSTSFDFKWNLSLGIWFMVI	inactive
VSVYKNVAFFISWI	1.58 ± 0.09
VSWHNILMWTRTPL	inactive
VSWYCCTFAAFILWNSSWCI	inactive

Substance	amyloid nucleation score
VSYNFGYAYECLGYVRFV	0.572 ± 0.36
VTASSPDLIGGVHMEWRLTC	inactive
VTCSRSLRLSKMFPNKMFLI	inactive
VTGLCSDTHRVSYEFRLPRK	inactive
VTHGSVCFTTIYRTIWRFNR	inactive
VTICISPAHLFAS	inactive
VTILYASASMESLSLGLCGT	inactive
VTLDEFRIISHCSYSFCYEG	inactive
VTLLWFISPFMMHWWVQRNG	-0.191 ± 1
VTLMILKGVFKFM	-0.136 ± 1
VTLTN	inactive
VTPVFMIWAS	inactive
VTRQLYVMGFVGHDEEGVVS	inactive
VVCFLYIRSYNQGLCRSYFR	2.29 ± 0.091
VVDFSTYWY	inactive
VVDKILITINRSLLLSGADN	inactive
VVGIKV	inactive
VVIIK	inactive
VVLAMTHSYRNFKMFRDHYH	0.957 ± 0.12
VVLDYVSYAVIHGWEM	inactive
VVLFKISSYPRHIHFGFHLL	inactive
VVLSWT	-0.477 ± 1.1
VVMACGFLGKRGDSGCLLVM	inactive

Substance	amyloid nucleation score
VVMWQRRLRYGPKERNNGKV	-0.067 ± 0.4
VVMYIRANPTDIYSYTLQPR	1.56 ± 0.12
VVSLRQLRW	inactive
VVTASYWLLCLSLYFSAS	inactive
VVTNG	0.408 ± 0.17
VVWASV	inactive
VVWDGMQIGSWPQ	inactive
VVWLDNKDVLTWHARCLCPM	inactive
VVWLQFGMEVKSSFSMTSKT	inactive
VVWNMYKFKACWYRDVTPLF	inactive
VVYDPVICDGWALDGGVGAR	inactive
VWETKMTLLINSKNYFVGFW	inactive
VWGIRFLLVWNRGHAGYSLN	inactive
VWKIHYCFDVFIMV	inactive
VWLFVSSMEYTNGTYQHHMM	inactive
VWLILRFMWAVVRTNRSNLD	inactive
VWMIPISCKSQFLFEWYGHY	1.12 ± 0.18
VWQYNDGSYCVVMYVSSSDY	1.06 ± 0.19
VWRHQDLGARAKAASHG	inactive
VWSFGLLVS	-0.17 ± 1.1
VWTLAAVYYIIVRYSHKIRK	inactive
VWVFKTNFVFRVQLGHSLGC	1.46 ± 0.094
VYCPELLSRCGQVGSTCCDR	inactive

Substance	amyloid nucleation score
VYDMCGNLQWAL	inactive
VYEGFQVWNDGLPDLVRFGV	inactive
VYIRSFRSCTWRSLPMRIRY	inactive
VYKIMVTFPSISMPSRSSGL	inactive
VYLHYLTREVSDYLMWWFRV	inactive
VYLKLSILFSCAFSN	inactive
VYLRHWAIYVIESVLQGSCR	inactive
VYLRSISFVRTRQMVWCLLP	inactive
VYRDFSGYFRLGWFDMSSVR	inactive
VYRNVHMFSRWQDFNPLGAR	inactive
VYTMVTMIDGIELFRWNLWS	inactive
VYVCYIL	1.73 ± 0.077
VYVLFRLCNNRFRKELIATL	inactive
VYVRG	inactive
VYYKVKEHVGWVFVSVVCIV	inactive
WAKNHPDLIMLIFADTISYN	2.31 ± 0.058
WALTRLRAPPF	inactive
WCAISICQLLKRQWYLGSYV	inactive
WCARSTWKISIEY	inactive
WCDYMKNPCSFEGKFLWRWP	inactive
WCFGYLHMNIV	inactive
WCFMQQFVFTLGRKFRIWRI	inactive
WCGEKVCCRAQMSLTIKSLL	inactive

Substance	amyloid nucleation score
WCHLFLFMCTSSLFSGWDDG	inactive
WCLHNLVSMLRDQTSRVSFP	inactive
WCQDATMYNPSYY	inactive
WDLLTKLHVKIKFLDRGMMS	inactive
WDSMMYNMVKDDSGLWNHVE	inactive
WDWWN	inactive
WFFMNVLASENKYFVLCCKA	inactive
WFLVNRDWFLGCQVTGEVLI	inactive
WFNLCYFG	2.5 ± 0.069
WFPSKYIATMFCLQVFLVKP	inactive
WFVNL	1.38 ± 0.15
WGCEIRANLLITSWVSVTVG	inactive
WGLGFFAI	inactive
WGLTMLRESRVCCKSYNKQG	inactive
WGNLCQSGALCCQEGC	inactive
WGRISNAHG	inactive
WGSEFIDTKFA	inactive
WGWMSTIKIVG	inactive
WHCLTVFILKYEVGFCSSLR	inactive
WHSKKLRICHLGCFVQTDWV	inactive
